Like-named read-outs stand apart in the source and are kept apart here.
What was measured:
Assay in all cases: SPR
FcgRIIIaV [1] = target: T1, FcgRIIIaV (human, UniProt P08637)
FcgRIa [2] = target: T2, FcgRIa (human, UniProt P12314)
T2 chain: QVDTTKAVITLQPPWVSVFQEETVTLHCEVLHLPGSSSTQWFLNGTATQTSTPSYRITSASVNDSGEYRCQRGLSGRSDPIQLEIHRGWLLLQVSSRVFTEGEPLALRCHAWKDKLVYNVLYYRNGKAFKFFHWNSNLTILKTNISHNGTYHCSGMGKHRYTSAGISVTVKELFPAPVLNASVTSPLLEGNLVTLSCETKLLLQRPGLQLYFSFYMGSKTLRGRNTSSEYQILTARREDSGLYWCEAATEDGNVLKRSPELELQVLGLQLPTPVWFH

FcgRIa [3] = target: T2, FcgRIa
FcgRIIIaV [4] = target: T1, FcgRIIIaV; remark: listed apart in the source
FcgRIIaH = target: T3, FcgRIIaH (human, UniProt P12318)
T3 chain: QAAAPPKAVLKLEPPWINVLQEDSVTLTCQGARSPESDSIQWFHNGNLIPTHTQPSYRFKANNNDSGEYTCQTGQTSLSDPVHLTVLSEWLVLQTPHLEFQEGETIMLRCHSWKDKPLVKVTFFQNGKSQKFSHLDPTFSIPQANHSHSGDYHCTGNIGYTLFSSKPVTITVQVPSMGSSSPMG

FcgRIIb [5] = target: T4, FcgRIIb (human, UniProt P31994)
T4 chain: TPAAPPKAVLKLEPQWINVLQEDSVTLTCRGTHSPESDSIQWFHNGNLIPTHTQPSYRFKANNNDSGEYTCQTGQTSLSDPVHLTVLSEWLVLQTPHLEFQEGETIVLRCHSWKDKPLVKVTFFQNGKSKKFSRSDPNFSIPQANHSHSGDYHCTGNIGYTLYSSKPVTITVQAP

FcgRIIaR = target: T5, FcgRIIaR (human, UniProt P12318)
T5 chain: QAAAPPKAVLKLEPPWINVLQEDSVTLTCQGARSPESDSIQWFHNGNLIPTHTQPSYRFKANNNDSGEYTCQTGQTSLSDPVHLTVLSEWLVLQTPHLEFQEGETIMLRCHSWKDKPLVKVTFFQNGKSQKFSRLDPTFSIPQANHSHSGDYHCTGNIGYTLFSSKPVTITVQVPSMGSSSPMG

FcgRIIb [6] = target: T4, FcgRIIb

T1 sequence (P08637 17-208 F176V): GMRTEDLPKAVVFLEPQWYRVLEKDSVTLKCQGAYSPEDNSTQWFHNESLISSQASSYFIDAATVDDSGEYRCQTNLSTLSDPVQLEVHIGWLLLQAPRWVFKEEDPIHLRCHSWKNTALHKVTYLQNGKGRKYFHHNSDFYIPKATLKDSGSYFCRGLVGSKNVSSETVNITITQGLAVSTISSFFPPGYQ

B1: IL6R-BP253/IL6R-L (antibody)
chain 1: QVQLQESGPGLVKPSETLSLTCAVSGHSISHDHAWSWVRQPPGEGLEWIGFISYSGITNYNPSLQGRVTISRDNSKNTLYLQMNSLRAEDTAVYYCARSLARTTAMDYWGEGTLVTVSSASTKGPSVFPLAPSSKSTSGGTAALGCLVKDYFPEPVTVSWNSGALTSGVHTFPAVLQSSGLYSLSSVVTVPSSSLGTQTYICNVNHKPSNTKVDKKVEPKSCDKTHTCPPCPAPELLGGPSVFLFPPKPKDTLMISRTPEVTCVVVDVEHEDPEVKFNWYVDGVEVHNAKTKPREEQYNSTYRVVSVLTVLHQDWLNGKEYKCKVSNKAFPAPIEKTISKAKGQPREPQVYTLPPSRDELTKNQVSLTCLVKGFYPSDIAVEWESNGQPENNYKTTPPVLDSDGSFFLYSKLTVDKSRWQQGNVFSCSVMHEALHNHYTQESLSLSP
chain 2: not shown
Kd (FcgRIIIaV [1]): 400 nM | Kd (FcgRIa [2]): 0.05 nM | Kd (FcgRIa [3]): 0.067 nM | Kd (FcgRIIIaV [4]): 3600 nM | Kd (FcgRIIaH): 860 nM | Kd (FcgRIIb [5]): 11 nM | Kd (FcgRIIaR): 2.3 nM | Kd (FcgRIIb [6]): 8.9 nM

Reference: patent publication US10919953 (dated 2021)
